Here are results for 2 molecules from PMC10651859, “Aptamer-based gold nanoparticle aggregates for ultrasensitive amplification-free detection of PSMA”.

Data set [1] has as its target T1, hrPSMA (human recombinant Prostate Specific Membrane Antigen, Sinobiological) (human, UniProt Q04609 44-750). Kind of data set: AuNP aggregate disassembly (DLS); hrPSMA series; no significant trend; 1x PBS pH 7.4; 37 C for 30 min stated for the initial 50 pM hrPSMA screening. Conditions: protein: commercial; chain copies: 2; label: 13 nm gold nanoparticles on Rev1 and Rev2; Control 1-16 paired with Rev1, 17-30 with Rev2; 3' portion single-stranded; many copies per aggregate.

The target in data set [2] is PSMA on intact LNCaP SEVs (human? (LNCaP cells), UniProt Q04609 1-750). Put plainly: AuNP aggregate disassembly (plasmon peak shift); intact SEVs; 1x PBS pH 7.4; 37 C for 30 min stated for the initial 50 pM hrPSMA screening. The conditions noted are these: protein: native; chain copies: 2; label: 13 nm gold nanoparticles on Rev1 and Rev2; Control 1-16 paired with Rev1, 17-30 with Rev2; 3' portion single-stranded; many copies per aggregate.

Data set [3] has as its target T1, hrPSMA (human recombinant Prostate …). Put plainly: AuNP aggregate disassembly (DLS size and count rate, plasmon shift); size change significant above 50 pM, count rate from 500 fM; detection thresholds, not Kd; 1x PBS pH 7.4; 37 C for 30 min stated for the initial 50 pM hrPSMA screening. The conditions noted are these: protein: commercial; chain copies: 2; label: 13 nm gold nanoparticles on Rev1 and Rev2; aPSMA 1-16 paired with Rev1, 17-30 with Rev2; 3' aptamer portion single-stranded; many copies per aggregate.

T1 sequence (Q04609 44-750): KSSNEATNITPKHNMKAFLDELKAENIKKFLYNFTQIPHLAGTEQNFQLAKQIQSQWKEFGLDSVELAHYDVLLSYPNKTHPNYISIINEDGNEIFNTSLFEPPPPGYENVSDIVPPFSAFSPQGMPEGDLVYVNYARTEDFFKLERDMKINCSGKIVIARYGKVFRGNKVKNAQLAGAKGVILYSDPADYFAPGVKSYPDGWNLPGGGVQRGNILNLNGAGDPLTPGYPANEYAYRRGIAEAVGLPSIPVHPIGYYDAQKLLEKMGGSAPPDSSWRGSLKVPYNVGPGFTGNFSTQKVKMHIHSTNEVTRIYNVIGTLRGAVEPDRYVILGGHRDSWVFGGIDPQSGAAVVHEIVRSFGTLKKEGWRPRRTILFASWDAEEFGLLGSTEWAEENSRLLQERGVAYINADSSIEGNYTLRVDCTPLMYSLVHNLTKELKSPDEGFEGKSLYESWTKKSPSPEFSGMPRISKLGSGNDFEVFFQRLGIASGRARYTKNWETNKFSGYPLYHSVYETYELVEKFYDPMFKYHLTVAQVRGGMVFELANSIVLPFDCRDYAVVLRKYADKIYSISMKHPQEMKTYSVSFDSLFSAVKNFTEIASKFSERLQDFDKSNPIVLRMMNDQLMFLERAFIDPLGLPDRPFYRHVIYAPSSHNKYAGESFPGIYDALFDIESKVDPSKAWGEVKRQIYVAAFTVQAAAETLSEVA
PSMA on intact LNCaP SEVs, sequence (Q04609 whole entry): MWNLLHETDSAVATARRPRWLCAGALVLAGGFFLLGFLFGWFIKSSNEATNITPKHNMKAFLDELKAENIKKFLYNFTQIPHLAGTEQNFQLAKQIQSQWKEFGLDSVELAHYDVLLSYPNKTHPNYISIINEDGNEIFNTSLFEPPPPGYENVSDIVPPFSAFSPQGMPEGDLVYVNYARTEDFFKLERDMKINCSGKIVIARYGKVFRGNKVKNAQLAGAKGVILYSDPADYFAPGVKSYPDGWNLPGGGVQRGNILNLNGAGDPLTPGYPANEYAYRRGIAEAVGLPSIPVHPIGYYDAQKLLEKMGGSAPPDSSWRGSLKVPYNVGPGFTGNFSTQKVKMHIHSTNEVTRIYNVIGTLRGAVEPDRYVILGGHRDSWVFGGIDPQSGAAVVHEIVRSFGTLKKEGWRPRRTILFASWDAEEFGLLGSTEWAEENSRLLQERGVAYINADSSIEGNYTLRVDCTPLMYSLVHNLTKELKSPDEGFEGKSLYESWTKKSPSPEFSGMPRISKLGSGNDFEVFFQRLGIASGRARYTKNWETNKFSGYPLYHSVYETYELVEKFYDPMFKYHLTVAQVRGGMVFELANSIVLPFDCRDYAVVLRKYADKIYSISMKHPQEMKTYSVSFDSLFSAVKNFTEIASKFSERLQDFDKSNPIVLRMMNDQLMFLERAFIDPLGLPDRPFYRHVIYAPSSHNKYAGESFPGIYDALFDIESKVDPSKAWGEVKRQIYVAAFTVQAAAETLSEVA

B1: Control:Rev1:Rev2 (C-AuNPs-Aggregate) (structured_DNA)
DNA 1: CTGTGACTCATCTGTGAAGGGCGGCGTTTTATATGTTACCGTCTAAGTACTCTGTTCCGCGCCGTGTGTTG
DNA 2: CACAGATGAGTCACAG
DNA 3: AAAACGCCGCCCTT
modifications: Rev1 3' C3 thiol; Rev2 5' C6 thiol
B1: the binding result in data set [1] and in data set [2] was “no binding” in each case.

B2: aPSMA:Rev1:Rev2 (aPSMA-AuNPs-Aggregate) (structured_DNA)
DNA 1: CTGTGACTCATCTGTGAAGGGCGGCGTTTTCGCTTTTGCGTTTTGGGTCATCTGCTTACGATAGCAATGCT
DNA 2: CACAGATGAGTCACAG
DNA 3: AAAACGCCGCCCTT
modifications: Rev1 3' C3 thiol; Rev2 5' C6 thiol
With B2, the binding result in data set [3] was “binds”.
